Holding throughout (assay): AlphaScreen or HTRF; saturation binding: HEK293 cells transfected with SNAP-tagged receptor (WT or mutant) and labelled with SNAP-Lumi4-Tb, incubated with increasing concentrations of galanin-A2 in the presence or absence of 100 uM unlabeled galanin, 1 h at room temperature; HTRF ratio 665 nm/620 nm
Conditions in all cases: one partner purified
A general note: Alpha assays give light when donor and acceptor beads are brought close together.

One assay deals with T1, SNAP-GAL1R R285^7.35A (human, UniProt P47211 1-349, R285^7.35A, Lumi4-Tb on the SNAP tag).
T1 construct: also called R285A; source: HEK293, transfected, on cells; not shown: SNAP tag, N-terminal, kept
T1 sequence (looked up): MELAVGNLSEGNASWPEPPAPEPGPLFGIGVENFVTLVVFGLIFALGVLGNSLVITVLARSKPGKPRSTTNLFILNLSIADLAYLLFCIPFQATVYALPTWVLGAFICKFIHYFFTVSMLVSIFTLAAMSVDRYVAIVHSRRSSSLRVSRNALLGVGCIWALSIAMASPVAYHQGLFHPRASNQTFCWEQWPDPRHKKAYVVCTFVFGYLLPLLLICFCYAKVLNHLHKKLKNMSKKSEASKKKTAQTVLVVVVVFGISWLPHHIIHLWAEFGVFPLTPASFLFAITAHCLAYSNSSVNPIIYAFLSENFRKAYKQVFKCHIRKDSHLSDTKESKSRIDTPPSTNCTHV

Assay [1] addresses T2, N-terminal-SNAP-tagged GAL1R, wild type (human, UniProt P47211 1-349, Lumi4-Tb on the SNAP tag).
T2 construct: also called SNAP-GAL1R; GAL1R WT; source: HEK293, transfected, on cells; not shown: SNAP tag, N-terminal, kept
T2 sequence (looked up): T1 sequence (looked up) with A285R

The target of a further assay is T3, SNAP-GAL1R H263^6.51A (human, UniProt P47211 1-349, H263^6.51A, Lumi4-Tb on the SNAP tag).
T3 construct: also called H263A; source: HEK293, transfected, on cells; not shown: SNAP tag, N-terminal, kept
T3 sequence (looked up): T1 sequence (looked up) with H263A, A285R

In a further assay the target is T4, SNAP-GAL1R H289^7.39A (human, UniProt P47211 1-349, H289^7.39A, Lumi4-Tb on the SNAP tag).
T4 construct: also called H289A; source: HEK293, transfected, on cells; not shown: SNAP tag, N-terminal, kept
T4 sequence (looked up): T1 sequence (looked up) with A285R, H289A

The next assay has as its target T5, SNAP-GAL1R K197^5.35A (human, UniProt P47211 1-349, K197^5.35A, Lumi4-Tb on the SNAP tag).
T5 construct: also called K197A; source: HEK293, transfected, on cells; not shown: SNAP tag, N-terminal, kept
T5 sequence (looked up): T1 sequence (looked up) with K197A, A285R

Residue numbers refer to the chain shown, from its start.

Kd data for 1 molecule are collected here from article PMC8924211 (Nature Communications, 2022).

B1: galanin-A2 (full-length galanin labeled with the dye A2 on an additional cysteine at the C-terminal end) (peptide)
peptide: GWTLNSAGYLLGPHAVGNHRSFSDKNGLTSC
modifications: dye A2 on the additional C-terminal cysteine
notes: numbers count on: the mature protein; additional cysteine at the C-terminal end of the peptide, carries the dye A2; source: synthetic peptide (synthesized by Vazyme, China)
What is called Kd is a measure of binding affinity in units of concentration. For the molecule B1, the Kd was 159 nM in the assay with SNAP-GAL1R R285^7.35A; 22.2 nM in assay [1]; 213 nM with SNAP-GAL1R H263^6.51A; 136 nM with SNAP-GAL1R H289^7.39A; 159 nM with SNAP-GAL1R K197^5.35A.
